Measurements reported in the nanobody polyreactivity screen of Harvey et al. (2022).

Experiment: yeast display, Sf9 membrane polyspecificity reagent, FACS + sequencing; frameworks hold sequencing errors
Summary of the method: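 Polyreactivity labels are assigned by the sorting gate from which each nanobody was recovered. The gates were low and high (top ~1%), set on anti-HA fluorescence for expression and streptavidin fluorescence for reagent binding. Before sorting, galactose-induced (36–48 hours) yeast display cells were stained for 1 hour at 4 °C with 10% biotinylated, detergent-solubilized Sf9 membrane reagent.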

Row | Sequence | polyreactivity (PSR sort gate)
1 | QVQLVESGGGLVQAGGSLRLSCAASGRIFDYYAMGWYRQAPGKERELVAAINRGGNTYYADSVKGRFTISRDNAKNTVYLQMNSLKPEETSVYYCNAQWYYLRYRYDYWGQGTQVTVSS | high polyreactivity
2 | QVQLVESGGGLVQAGGSLRLSCAASGIIFEYYAMGWYRQAPGKEWELVAAITDDGVVTYYGDSVKGRFTISRDNAKNTVYLQMNSLKPEDTAVYYCAAESYWTATYTYDYWGQGTQVTVSS | high polyreactivity
3 | QVQLVESGGGLVQAGGSLRLSCAASGFTFFHNAMGWYRQAPGKERELVAAITSGGNTYYADSVKGRFTISRDNAKNTVYLQMNSLKPEDTAVYFCNAVISRVVRYEYWGQGTQVTVSS | high polyreactivity
4 | QVQLVESGGGLVQPGGSLRLSCAASGRTYRWYAMGWYRQAPGKERELVASITSGVSTYYADSVTGRCTISRDNAKNTVNLQMNSLKPEDTAVYYCAAGYRFTTYLVYNYWGQGTHVTVSS | high polyreactivity
5 | QVQLVESGGGLVQAGGSLRLSCAASGSISYFNDMGWYRQAPGKERELVAAIRDSGGITYADSVKGRFTISRDNAKNTVYLQMNSLKPEDTAVYYCDKDAGLQKYHHDYWGQGTQVTVSS | low polyreactivity
6 | QVQLVESGGGLVQAGGSLRLSCAASGSIFFGNAMGLYRQAPGKERELVAAISTTGGSTYYADSVKGRFTISRDNAKNTVYLQMNSLKPEDTAVYYCNADRATWWEQWWYDYWGQGTQVTVSS | low polyreactivity
7 | QVQLVESGGGLVQAGGSLRLSCAASGFIFGSYAMGWYRQAPGKERELVAAISYRGGTTYYADSVKGRFTISRDNAKNTVYLQMNSLKPEDTAVYYCAADSPENRYNYWGQGTQVTLSS | high polyreactivity
8 | QVQLVESGGGLVQAGGSLRLSCAASGFIFFYNAMGWYRQAPGKERELVAAISARGGSTYYADSVKGRFTISRDNAKNTVYLQMNSLKPEDTAVYYCNAVFPWPYVSRSIYWYYWGQGTQVTVSS | high polyreactivity
9 | QVQLVESGGGLVQAGGSLRLSCAASGSITVPYGMGWYRQAPGKERELVAAITGGSTNYADSVKGRFTISRDNAKNTVYLQMNSLKPEDTAVYYCAADWWALYTRYDYWGQGSQVTVSS | low polyreactivity
10 | QVQLVESGGGLVQAGGSLRLSCAASGNIFAYYAMGWYRQAPGKERELVAAISRRGGSTYYADSVKGRFTISRDNAKNTVYLQMNSLKPEDTAVYYCNADTGNRGYDYWGQGTQVTVSS | high polyreactivity
11 | QVQLVESGGGLVQAGGSLRLICAASGSIQDWNAMGWYRQAPGKERELVAAITNGVSTHYADSVKGRFTISRDNAKNTVYLQMNSLKPEDTAVYYCAKAFWWRPEWWLRSARGSWGLGTQVTVSS | low polyreactivity
12 | QGQLVESGGGLVQAGGSLRLSCAASGSIFIGNAMGWYRQAPGKERELVAAITGRGGRTYYADSVKGRFSISRDNAKNTVYLQMNSLKPVDTAVYDCNARSGSSYSGYYYWGQGTQVTVSS | high polyreactivity
13 | QVQLVESGGGLVQAGGSLRLSCAASGRTLPAYAMGWYRQAPGKERELVAAISWGGGSTYYADSVKGRFTISRDNAKKTVYLQMNSLKPEDTAVYYCAVAGYWFAVAEYDYWGQGTQVTVSS | low polyreactivity
14 | QVQLVESGGGLVQAGGSLRLSCAASGSIFSQYVMGWYRQAPGKERELVAAISWSGGHTYYADSVKGRFTISRDNAKNTVYLQMNSLKPEDTAVYYCATVPRKTPGNAELDYWGQGTQVTVSS | high polyreactivity
15 | QVQLVESGGGLVQAGGSLRLSCAASGYIFIWYDMGWYRQAPGKERELVAAISGSGGSTYYADSVKGRFTISRDNAKNTVYLQMNSLKPEDTAVYYCAAYVPRGNSEVIAMDYWGQGTQVTVSS | low polyreactivity
16 | QVQLVESGGGLVQAGGSLRLSCAASGSTYYQYVMGWYRQAPGKEMELVAAISGSGGSTYYADSVKGRFTISRDNAKNTVYLQMNSLKPEDTAVYYCAARLRGRGRPPFGYWGQGTQLTVSS | high polyreactivity
17 | QVQLVESGGGLVQAGGSLRLSCAASGRIFQRNAMGWYRQAPGKERELVAAITSTGVRTYYADSVKGRFTISRDNAKNTVYLQMNSLKPEDTAVYYCAVRGERRYIYAYWGQGTQVTVSS | high polyreactivity
18 | QVQLVESGGGLVQAGGSLRLSCAASGRIFRYYVMGWYRQAPGKEREFVASISGRGASTYYADSVKGRFTISRDNAKNTVYLQMNSLKPEDTAVYYCNADVWLLSYFPEYDYWGQGTQVTVSS | low polyreactivity
19 | QVQLVESGGGLVQAGGSLRLSCAASGRIFYIYAMGWYRQAPGKERELVATITGSGGGTYYADSVKGRFTISRDNAKNTVYLQMNSLKPEDTAVYYCAAQVLTDPDNYWGQGTQVTVSS | low polyreactivity
20 | HVKLQESGDGLVQAGGSLRLSSAPSGTIYSDYGMGGSRQAPGKERELLAGISDGCNTNYTDSVKGRFTISRDNAHRVSADEQPETGGYRGVLLRGSERWLLFYVYWGQGTQVTVSS | high polyreactivity
21 | QVQLVESGGGLVQAGGSLRLSCAASGSIVYYYAMGWYRQAPGKERELVAAITRSGGSTYYADSVKGRFTISRDNAKNTVYLQMNSLKPEDTSVYYCAKDAHAYRDLDYWGQGTQVTVSS | low polyreactivity

Row | Sequence | polyreactivity (PSR sort gate)
22 | QVQLVESGGGLVQAGGSLRLSCAASARIYTTYAMGWYRQAPGKERELVASITTTDTRTYADSVKGRFTISRDNAKNTVYLQMNSLKPEDTAVYYCAKDRLNKGRYYRGASDYWGLGTQVTVSS | low polyreactivity
23 | QVQHLESGGGLVQAGGSLRLSCAASGFTFGYYAMGWYRQAPGKEREFVATISYGTGSTYYADSVKGRFTISRDNAKNTVYLQMNSLKPEDTAVYYCNADTWPGEYNGYFSGAYDYWGQGTQVTVSS | high polyreactivity
24 | QVQLVESGGGLVQAGGSLRLSCAASGFTFKSYAMGWYRQAPGKERELVAGISRNGGRTYYADSVKGRFTISRDNAKNTVYLQMNSLKPEDTAVYYCAARIYTSRDNYWGQGTQVTVSS | high polyreactivity
25 | QVQLVESGGGLVQAGGSLRLSCAASGSIFNWYTMGWYRQAPGKERELVAVITQSGGSTYYADSVKGRFTISRDNAKNTVYLQMNSLKPEDTAVYYCAKRYWSYQYGYRMYYWGQGTQVTVSS | high polyreactivity
26 | QVQLVESGGGLVQAGGSLRLSCAASGSIFFPYAMGWYRQAPGKERELVAASTRSGGRTYYADSVKGRFTISRDNAKNTVYLQMNSLKPEDTAVYYCAAGPWYKFYDWRPWFSYDYWGQGTQVTVSS | low polyreactivity
27 | QVQLVESGGGLVQAGGSLRLSCAASGSTFSYNAMGWYRQAPGKERELVAAINLRGGNTYYADSVKGRFTNSRDNAKNTVYLQMNSLKPEDTAVYYCARTRRHSQTFDYWGQGTQVIVSS | high polyreactivity
28 | QVQLVQSGGGLVQAGGSLRLSCADSGSIFEYYTMGWYRQAPGKERELVAAISDGGSTYYADSVKGRFTISRDNAKNTVYLQMYSLKPEDTAVYYCAAEYQQDFWVAVDYWGQGTQVSVSS | low polyreactivity
29 | QVQLVESGGGLVQAGGSLRLSCAASGGIISMYDIGWYRQAQGKERQLVAAISQSGGSTYYADYVKGRFTISRDNAKNTVYLQMNSLNPEVTGVYYCAADLYLTLIGFIFTGEEYWGQGTQGTVSS | low polyreactivity
30 | QVQLVESGGGLVQAGGSLRLSCAASGFTFGYYTMGWYRQAPGKERELVASISRTGGRTYADSVKGRFTISRDNAKNTVYLQMNSLKPEDTAVYYCAAYRQGSAYDYWGQGTQVTVSS | high polyreactivity
31 | QVQLVESGGGLVQAGGSLRLSCAASGIIYWVNAMGWYRQAPGKERELVAVINRGTYYADSVKGRFTISRDNAKNTVYLQMNSLKPEDTAVYYRYAYTSTTEYDYWGLGTQVTVSS | low polyreactivity
32 | QVQLVESGGGLVQAGGSLSLSCAASGRIFNQNAMGWYRQAPGKERELVAAISKSGTRTYYADSVKGRFTISRDNAKNTVYLQMNSLNREDTAVYYCAADYYRRIGGYRYDYDYWGQGTEVTVSS | high polyreactivity
33 | QVQLVESGGGLVQAGGSLRLSCAASGRTFQYNAMGWNTQAPGKERELVAAISSGGSTYYADSVKGRFTISRDNAKNTVYLQMNSLKPEDTAVYYCNAVTGYQHVKYRYYYWGQGTQVTVSS | low polyreactivity
34 | QVQLVESGGGLVQAGGSLRLSCAASGSTFSTNAMGWYRQAPGKERELVAAISWSDDDTYYADSVKGRFTISRDNAKNTVYLQMNSLKPEDTGVYYCAAEGVGPARVYQGGEYNYWGQGTQVTVSS | low polyreactivity
35 | QVQLVESGGGLVQAGGSLRLCCAASGFTFPYNGMGWYRQAPGKERELVASISWSGASTYYADSVKGRFTISRDNAKNTVYLQMNSLKPEDTAVYYCAADPGYYSWGCSQDDYWGQGTQVTVSS | low polyreactivity
36 | QVQLVESGGGLVQAGGSLRLSCAASGSTFPPNAMGWYRQAPGKESELVAAISFSSGRTYYADSVKGRFTISRDNAKNTVYLQMNSLKPEDTAVYYCAADHGYWGQGTQVTVSS | low polyreactivity
37 | QVQLVDSGGGLVQAGGSHRLSCAASGRIFGDNAMGWYRQAPGKERELVAAIDWNDGNTYYADSVKGRFTISRDNANNTVYLQMNSLKPEDTAVYYCNTAGQDAEYDYWGQGTQVTVSS | low polyreactivity
38 | QVQLVESGGGLVQAGGSLRLSCAASGRTFSYYAMGWYRQAPGKERELVAAISSGGSTYYADSVKGRFTISRDNAKNTVYLQMNSLKTEVSEVYYCAKSYYRYQVSSRMYYRGQGTQVTVSS | high polyreactivity
39 | QVQLVESGGGFVQAGGTLRLSCAASGFTFGYNAMGWYRHAPGKERELVAAISFSDGITYYADSVKRRFTISRDNAKNNVYLQMNSLKPEDTAVYYCAADLYFEYEYWGQGTQVTVSS | high polyreactivity
40 | QVQLVESGGGLVQAGGSLRLSCAASGLIFTGYAMGWYRQAPGKERELVAAITSGGGTNYADSVKGRFTISRDNAKNTVYLQMNSLKPEDTAVYYCAVDFGHYYLYSITSYLWYWDGYDYWGQGTQVTVSS | low polyreactivity
41 | QVQLVGVRGRLVQAGGSLRLSCAASGRTIYAYAMGWNRQAPRKERELVATITSGGSTNYADSVKGRFTISRDNAMNTFYLLMNSLKPEDTAVYYCGAGPRGYKKYDYWGHGTQVTVSS | low polyreactivity
